From publication PMC7744066

Target: Aldob (aldolase B) (UniProt P05062)
Test: anti-Flag (Aldob) co-IP, Myc-Akt1 blot
Settings: reference: Myc-Akt1 wild type

binding against the reference (sites S473) | binding against the reference (sites T308) | Substance
weaker |  | Akt1 (from UniProt P31749) Myc-Akt1 S473A
 | weaker | Akt1 (from UniProt P31749) Myc-Akt1 T308A
